Assay results as given in US20230183347A1.

Molecular target: human PD-1 (hPD-1) expressed on T cells (DO11.10 T cell hybridomas, DO11.10 mouse CD4+ T cells, activated human CD4+ T cells) (human) (UniProt Q15116)
Experiment: cell-based or functional assay

Chain of UniProt Q15116 (Q15116 25-288 limits assumed): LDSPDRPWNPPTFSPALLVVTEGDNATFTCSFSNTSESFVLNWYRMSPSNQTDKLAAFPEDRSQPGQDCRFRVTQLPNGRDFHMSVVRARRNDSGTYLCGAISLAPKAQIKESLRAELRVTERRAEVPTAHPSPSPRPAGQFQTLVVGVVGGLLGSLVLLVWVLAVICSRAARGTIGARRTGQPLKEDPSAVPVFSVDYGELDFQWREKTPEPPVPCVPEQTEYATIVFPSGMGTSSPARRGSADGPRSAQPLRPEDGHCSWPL

## anti-human PD-1 antibody (clone: J116, Invitrogen)
  IC50 of inhibitory activity on IL-2 production: 1 µg/mL
